Laboratory results from patent US20080051562.

What was measured:
[1] = test system: PEG-TMB (TMB conjugated at the C-terminal azido-methionine analog to methyl-PEG-triarylphosphine conjugate 2 by Staudinger ligation)
[2] = target: recombinant human Thrombomodulin (soluble truncated form that lacks the putative transmembrane and the cytoplasmic domains, approximate weight 68 kD; American Diagnostica Inc.) (UniProt P07204)
[3] = test system: TMB (truncated human thrombomodulin derivative, EGF-like domains 4-6, Met-388-Leu, C-terminal GlyGlyMet linker with azido-methionine analog)
[4] = test system: TMA (truncated human thrombomodulin EGF-like domains 4-6, Met-388-Leu, C-terminal GlyGlyMet linker, expressed as an N-terminal Dsba enzyme fusion with leader sequence)

recombinant human Thrombomodulin (soluble truncated form that lacks the putative transmembrane and the cytoplasmic domains, approximate weight 68 kD; American Diagnostica Inc.), sequence (P07204 whole entry, looked up, the tested form may be a part): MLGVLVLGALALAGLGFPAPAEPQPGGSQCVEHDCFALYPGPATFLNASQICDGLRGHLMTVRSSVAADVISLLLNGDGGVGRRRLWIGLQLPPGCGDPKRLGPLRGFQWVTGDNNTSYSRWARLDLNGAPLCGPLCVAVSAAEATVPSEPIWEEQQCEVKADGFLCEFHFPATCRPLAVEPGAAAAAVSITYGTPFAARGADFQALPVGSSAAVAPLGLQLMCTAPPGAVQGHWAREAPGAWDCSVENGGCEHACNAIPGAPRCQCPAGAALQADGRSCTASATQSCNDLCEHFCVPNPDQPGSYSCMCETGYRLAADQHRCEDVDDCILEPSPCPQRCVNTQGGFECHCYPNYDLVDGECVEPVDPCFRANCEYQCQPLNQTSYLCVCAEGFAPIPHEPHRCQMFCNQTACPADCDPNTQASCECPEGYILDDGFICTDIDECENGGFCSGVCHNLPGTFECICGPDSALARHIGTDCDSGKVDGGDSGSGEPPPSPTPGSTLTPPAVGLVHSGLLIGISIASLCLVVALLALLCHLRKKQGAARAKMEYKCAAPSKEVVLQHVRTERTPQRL

**Q.** With “human alpha thrombin (Haematologic Technologies Inc.)” as the substance, how does the KM (µM) for protein C activation by the TM-thrombin complex [1] read?
**A.** 1 µM

**Q.** What about the kcat (min^-1) for protein C activation by the TM-thrombin complex [1] of the same substance?
**A.** 0.2 min⁻¹

**Q.** What about the kcat/KM (min^-1 · µM^-1) for protein C activation by the TM-thrombin complex (min^-1 · µM^-1) [1] of the same substance?
**A.** 0.2

**Q.** And the KM (µM) for protein C activation by the TM-thrombin complex [2]?
**A.** 0.7 µM

**Q.** And the kcat (min^-1) for protein C activation by the TM-thrombin complex [2]?
**A.** 0.14 min⁻¹

**Q.** What about the kcat/KM (min^-1 · µM^-1) for protein C activation by the TM-thrombin complex (min^-1 · µM^-1) [2] of the same substance?
**A.** 0.21

**Q.** And the KM (µM) for protein C activation by the TM-thrombin complex [3]?
**A.** 1 µM

**Q.** What about the kcat (min^-1) for protein C activation by the TM-thrombin complex [3] of the same substance?
**A.** 0.16 min⁻¹

**Q.** And the kcat/KM (min^-1 · µM^-1) for protein C activation by the TM-thrombin complex (min^-1 · µM^-1) [3]?
**A.** 0.16

**Q.** And the KM (µM) for protein C activation by the TM-thrombin complex [4]?
**A.** 0.9 µM

**Q.** What about the kcat (min^-1) for protein C activation by the TM-thrombin complex [4] of the same substance?
**A.** 0.22 min⁻¹

**Q.** What about the kcat/KM (min^-1 · µM^-1) for protein C activation by the TM-thrombin complex (min^-1 · µM^-1) [4] of the same substance?
**A.** 0.26
